We go through two molecules from patent US20260042854A1 (SCIWIND BIOSCIENCES USA, published 2026).

For orientation: EC50 means the concentration needed to bring the measured effect to its halfway point.

In assay [1] the target is T1, hGLP-1R on the cell membrane (HEK293 cells overexpressing hGLP-1R) (human, UniProt P43220 24-463). The assay can be described thus: cell-based or functional assay.
In assay [2] the target is T2, extracellular domain of hGLP-1R (NP_002053.3, aa 24-145), recombinant protein (human, UniProt P43220 24-145).
T2 construct: range 24-145; Expressed as a recombinant protein; also called hGLP-1R recombinant protein
The assay can be described thus: ELISA, plate coated with hGLP-1R extracellular domain, anti-human Fc-HRP detection. On the technique in general: In an ELISA, binding on a coated surface is turned into a signal by an enzyme label.

Assay [3] addresses monkey GLP-1R (JN033215.1) on HEK293 cells (monkey). The assay can be described thus: cell-based or functional assay.
Assay [4] addresses T1, hGLP-1R on the cell membrane (HEK293 …). Briefly: cell-based or functional assay. This is another data set of the same source.
Assay [5] has the same target. The assay can be described thus: flow cytometry on HEK293 cells overexpressing hGLP-1R, PE anti-human IgG Fc. A general note: In flow cytometry, cells or beads pass a laser one at a time.
The target in assay [6] is T3, mouse GLP-1R (NM_021332.2) on HEK293 cells (mouse, UniProt O35659 22-463).
T3 sequence (looked up): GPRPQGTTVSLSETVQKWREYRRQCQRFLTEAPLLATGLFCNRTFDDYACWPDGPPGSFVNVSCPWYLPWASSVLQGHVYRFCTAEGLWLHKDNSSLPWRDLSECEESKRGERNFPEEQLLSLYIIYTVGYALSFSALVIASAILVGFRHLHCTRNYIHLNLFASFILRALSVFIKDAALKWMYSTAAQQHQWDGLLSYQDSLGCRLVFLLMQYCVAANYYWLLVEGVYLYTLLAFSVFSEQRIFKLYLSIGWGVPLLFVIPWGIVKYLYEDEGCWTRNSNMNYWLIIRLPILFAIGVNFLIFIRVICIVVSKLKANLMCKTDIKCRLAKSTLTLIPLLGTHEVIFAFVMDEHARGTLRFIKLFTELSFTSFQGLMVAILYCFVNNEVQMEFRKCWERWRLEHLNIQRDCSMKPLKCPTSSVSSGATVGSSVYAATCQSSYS
Briefly: cell-based or functional assay.

B1: P16288 (antibody, human IgG4 S228P, kappa, V domains shown)
VH: QVQLVQSGAEMKKPGASVKVSCKTSGYRFSTYVISWVRQTPGQGLEWMGWISPYTGDIDYAQKFQGRVTITADESTSTAYMELSRLRSDDTAVYYCARERDGYNFPGMDVWGQGTTVTVSS
VL: DIQLTQSPSFLSASVGDRVTITCRASQGISSYLAWYQQKPGRAPKLLIYSASTLQRGVPSRFSGSGSGTDFTLTISSLQPEDYATYYCQQADSFPPSFGPGTKVDIKR
notes: Fully human Fab from a phage library, linked to IgG4 (S228P) constant regions; also called anti-GLP-1R antibody P16288
In the case of B1, in assay [1], the “IC50, inhibition of GLP-1 (2.5 ng/mL) activity in hGLP-1R-CRE-Luciferase-HEK293 reporter gene assay” value is 13.4 nM. The EC50 in assay [2] worked out at 0.013 nM; in assay [5] it was 9.9 nM. Moreover, the “IC50 (nM), inhibition of GLP-1 (1 ng/ml) induced cAMP (HTRF) in HEK293 cells transfected with monkey GLP-1R” value in assay [3] is 162 nM. Besides, in assay [4], the “IC50 (nM), inhibition of GLP-1 (1 ng/ml) induced cAMP (HTRF) in HEK293 cells transfected with human GLP-1R” value was 211 nM.

B2: P16289 (antibody, human IgG4 S228P, kappa, V domains shown)
VH: EVQLVETGGGVVQPGRSLRLSCAASGFTFSSYAMHWVRQAPGKGLEWVAVISYDGSNKYYADSVKGRFTISRDNSKNTLYLQMNSLRAEDTAVYYCAREGYSSSWTYYYYYYMDVWGKGTMVTVSS
VL: DIQLTQSPSSLSASVGDRVTITCRASQGVSRALAWYQQKPGKAPKLLIYDASYLEDGVPSRFSGSGSGTDFTLTISSLQPEDFATYYCQQSYSTPYTFGQGTKLEIKR
notes: Fully human Fab from a phage library, linked to IgG4 (S228P) constant regions; also called anti-GLP-1R antibody P16289
Consider B2, for which the “IC50, inhibition of GLP-1 (2.5 ng/mL) activity in hGLP-1R-CRE-Luciferase-HEK293 reporter gene assay” value in assay [1] is more than 2820 nM. Also, the EC50 in assay [2] was 0.0048 nM; in assay [5], more than 137 nM. Besides, in assay [3], the “IC50 (nM), inhibition of GLP-1 (1 ng/ml) induced cAMP (HTRF) in HEK293 cells transfected with monkey GLP-1R” value was more than 5500 nM. The “IC50 (nM), inhibition of GLP-1 (1 ng/ml) induced cAMP (HTRF) in HEK293 cells transfected with human GLP-1R” value in assay [4] was more than 5500 nM. In assay [6], the “IC50 (nM), inhibition of GLP-1 (6 ng/ml) induced cAMP (HTRF) in HEK293 cells transfected with mouse GLP-1R” value was more than 5500 nM.
